Test results as given in US20250066503A1, “CELL INJURY INDUCING THERAPEUTIC DRUG FOR USE IN CANCER THERAPY” (CHUGAI SEIYAKU KABUSHIKI KAISHA, priority 2016, published 2025).

What was measured:
[1] = system: NCI-H446 human cancer cell line; assay: Cytotoxic activity (cell proliferation inhibition rate, xCELLigence) with human PBMCs; format: cell-based; conditions: human PBMCs as effector cells; NCI-H446 target cells; 72 hours
Description: Using a syringe preloaded with 100 μL of 1,000 units/mL heparin solution (Novo Heparin for injection, 5000 units, Novo Nordisk), 50 mL of peripheral blood was collected from each healthy volunteer (adult individual). This peripheral blood was diluted two-fold in PBS(−), divided into four aliquots, and added into a Leucosep tube for lymphocyte separation (Cat. No. 227290, Greiner Bio-One) that had been loaded with 15 mL of Ficoll-Paque PLUS and subjected to centrifugation in advance. This separation tube was centrifuged (at 2150 rpm for ten minutes at room temperature), and then the mononuclear cell fraction was collected. The cells in the mononuclear cell fraction were washed once with the Dulbecco's Modified Eagle's Medium containing 10% FBS (manufactured by SIGMA, hereinafter referred to as 10% FBS/D-MEM), and then prepared to have a cell density of 4×10^6 cells/mL using 10% FBS/D-MEM. The cell suspension prepared this way was used as the human PBMC solution in the experiment below.
Cytotoxic activity was assessed by the rate of cell proliferation inhibition using the xCELLigence Real-Time Cell Analyzer (Roche Diagnostics). […]
Cytotoxic activity was measured by the method described in Reference Example 1-3-2.
CDR and FR were determined according to the Kabat definition (Kabat numbering). […]

[2] = molecular target: human GPC3 (Homo sapiens, UniProt P51654); assay: Affinity for human GPC3 by surface plasmon resonance (Biacore T200); format: binding
Description: The activity to bind human GPC3 when using GL4 (SEQ ID NO: 41) and L0000 (SEQ ID NO: 53) as the L-chain variable regions was evaluated. This was performed using the molecular form of a single-arm antibody having a single Fab at the Fc region of a human IgG1 heterodimerized by the knobs-into-hole technique. H0000 (SEQ ID NO: 40) was used for the anti-GPC3 antibody H-chain variable region.
The affinity and binding rate constants of an anti-GPC3 antibody for an antigen were measured by the multi-cycle kinetics method of a surface plasmon resonance assay using Biacore™-T200 (GE Healthcare Japan). HBS-EP+(GE Healthcare Japan) was used for the running buffer, and an amine coupling kit (GE Healthcare Japan) was used to covalently bind Protein A/G to the CM5 chip (carboxymethyl dextran-coated chip). Each anti-GPC3 antibody was prepared so that approximately 100 RU will be captured by Protein A/G. Human GPC3 used as the analyte was prepared at 8, 16, 32, 64, and 128 nM using HBS-EP+. Measurements were carried out by first allowing Protein A/G to capture the antibody solution, and then injecting the human GPC3 solution at a flow rate of […] for three minutes to allow reaction to take place. Then, the solution was switched to HBS-EP+ and the dissociation phase was measured for 15 minutes. After completion of the dissociation phase measurement, the sensor chip was regenerated by washing with 10 mM Gly-HCl at pH 1.5. Measurement at the concentration of 0 was similarly carried out by allowing Protein A/G to capture the antibody solution, performing a three-minute HBS-EP+ injection to allow reaction to take place, and then switching to HBS-EP+ to measure the dissociation phase for 15 minutes. […]
CDR and FR were determined according to the Kabat definition (Kabat numbering).
First, point mutations were introduced into CDR1, CDR2, and CDR3 of the anti-human GPC3 bispecific antibody sequence produced in Reference Example 2, H0000-ERY27_HK (SEQ ID NO: 54), to prepare modified antibodies. Next, the affinity of these modified antibodies for soluble human GPC3 was determined.

[3] = single-arm antibody, multi-cycle kinetics

human GPC3, sequence (P51654 25-563 limits assumed): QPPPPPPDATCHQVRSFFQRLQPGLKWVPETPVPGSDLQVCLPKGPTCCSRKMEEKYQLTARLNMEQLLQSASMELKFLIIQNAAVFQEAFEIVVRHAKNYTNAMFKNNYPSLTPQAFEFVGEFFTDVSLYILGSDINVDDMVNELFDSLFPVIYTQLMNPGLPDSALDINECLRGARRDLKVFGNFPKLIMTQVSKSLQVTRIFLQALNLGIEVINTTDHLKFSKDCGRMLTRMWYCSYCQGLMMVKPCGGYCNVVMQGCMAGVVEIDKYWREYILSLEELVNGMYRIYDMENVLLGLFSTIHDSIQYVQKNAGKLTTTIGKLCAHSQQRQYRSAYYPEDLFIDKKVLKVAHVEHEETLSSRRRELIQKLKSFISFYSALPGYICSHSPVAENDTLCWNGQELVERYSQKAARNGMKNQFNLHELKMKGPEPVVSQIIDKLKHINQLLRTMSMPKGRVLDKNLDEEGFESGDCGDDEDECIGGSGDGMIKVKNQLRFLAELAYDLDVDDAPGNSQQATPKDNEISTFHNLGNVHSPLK

B1: GPC3_ERY22_rCE115: heterodimeric bispecific antibody of GL4-ERY22_Hk, H0000-ERY22_L, rCE115H-ERY22_Hh, rCE115L-k0 (SEQ ID NOs: 47-50) (antibody)
heavy 1: DIVMTQSPLSLPVTPGEPASISCRSSQSLVHSNRNTYLHWYQQKPGQAPRLLIYKVSNRFSGVPDRFSGSGSGTDFTLKISRVEAEDVGVYYCSQNTHVPPTFGQGTKLEIKSSASTKGPSVFPLAPSSKSTSGGTAALGCLVKDYFPEPVTVSWNSGALTSGVHTFPAVLQSSGLYSLSSVVTVPSSSLGTQTYICNVNHKPSNTKVDKKVEPKSCDKTHTCPPCPAPEAAGGPSVFLFPPKPKDTLMISRTPEVTCVVVDVSHEDPEVKFNWYVDGVEVHNAKTKPREEQYASTYRVVSVLTVLHQDWLNGKEYKCKVSNKALPAPIEKTISKAKGQPREPQVCTLPPSRDELTKNQVSLWCLVKGFYPSDIAVEWESNGQPENNYKTTPPVLDSDGSFFLYSKLTVDKSRWQQGNVFSCSVMHEALHNHYTQKSLSLSPHHHHHHHH
light 1: QVQLVQSGAEVKKPGASVKVSCKASGYTFTDYEMHWIRQPPGQGLEWIGAIDPKTGDTAYSQKFKGRVTLTADKSTSTAYMELSSLTSEDTAVYYCTRFYSYTYWGQGTLVTVSSASVAAPSVFIFPPSDEQLKSGTASVVCLLNNFYPREAKVQWKVDNALQSGNSQESVTEQDSKDSTYSLSSTLTLSKADYEKHKVYACEVTHQGLSSPVTKSFNRGEC
heavy 2: EVQLVETGGSLVQPGKSLKLTCATSGFTFSNAWMHWVRQSPEKQLEWVAQIKAKSNNYATYYAESVKGRFTISRDDSKSNIYLQMNSLKEEDTAVYYCRYVHYGAYYGVDAWGQGTSVTVSSASTKGPSVFPLAPSSKSTSGGTAALGCLVKDYFPEPVTVSWNSGALTSGVHTFPAVLQSSGLYSLSSVVTVPSSSLGTQTYICNVNHKPSNTKVDKKVEPKSCDKTHTCPPCPAPEAAGGPSVFLFPPKPKDTLMISRTPEVTCVVVDVSHEDPEVKFNWYVDGVEVHNAKTKPREEQYASTYRVVSVLTVLHQDWLNGKEYKCKVSNKALPAPIEKTISKAKGQPREPQVYTLPPSRCELTKNQVSLSCAVKGFYPSDIAVEWESNGQPENNYKTTPPVLDSDGSFFLVSKLTVDKSRWQQGNVFSCSVMHEALHNHYTQKSLSLSPDYKDDDDK
light 2: DVVMTQTPVSMSVSLGGQVSISCRSSQSLVHNNGNTYVSWYIQKPSQSPQLLIYKVSNRFSGISDRFSGSGSGTDFTLKISRVEPDDLGVYYCGQGTQDPYTFGAGTKLELKRTVAAPSVFIFPPSDEQLKSGTASVVCLLNNFYPREAKVQWKVDNALQSGNSQESVTEQDSKDSTYSLSSTLTLSKADYEKHKVYACEVTHQGLSSPVTKSFNRGEC
modifications: An artificially generated sequence
[1]
  cytotoxic activity (T-cell-dependent cellular cytotoxicity): very strong activity

B2: antibody-1: anti-human CD3ε chain and anti-human GPC3 bispecific antibody (antibody)
heavy: EVQLVETGGSLVQPGKSLKLTCATSGFTFSNAWMHWVRQSPEKQLEWVAQIKAKSNNYATYYAESVKGRFTISRDDSKSNIYLQMNSLKEEDTAVYYCRYVHYGAYYGVDAWGQGTSVTVSSASTKGPSVFPLAPSSKSTSGGTAALGCLVKDYFPEPVTVSWNSGALTSGVHTFPAVLQSSGLYSLSSVVTVPSSSLGTQTYICNVNHKPSNTKVDKKVEPKSCDKTHTCPPCPAPEAAGGPSVFLFPPKPKDTLMISRTPEVTCVVVDVSHEDPEVKFNWYVDGVEVHNAKTKPREEQYASTYRVVSVLTVLHQDWLNGKEYKCKVSNKALPAPIEKTISKAKGQPREPQVYTLPPSRCELTKNQVSLSCAVKGFYPSDIAVEWESNGQPENNYKTTPPVLDSDGSFFLVSKLTVDKSRWQQGNVFSCSVMHEALHNHYTQKSLSLSPDYKDDDDK
light: DVVMTQTPVSMSVSLGGQVSISCRSSQSLVHNNGNTYVSWYIQKPSQSPQLLIYKVSNRFSGISDRFSGSGSGTDFTLKISRVEPDDLGVYYCGQGTQDPYTFGAGTKLELKRTVAAPSVFIFPPSDEQLKSGTASVVCLLNNFYPREAKVQWKVDNALQSGNSQESVTEQDSKDSTYSLSSTLTLSKADYEKHKVYACEVTHQGLSSPVTKSFNRGEC
chain 1: DIVMTQSPLSLPVTPGEPASISCRSSQSLVHSNRNTYLHWYQQKPGQAPRLLIYKVSNRFSGVPDRFSGSGSGTDFTLKISRVEAEDVGVYYCSQNTHVPPTFGQGTKLEIKSSASTKGPSVFPLAPSSKSTSGGTAALGCLVKDYFPEPVTVSWNSGALTSGVHTFPAVLQSSGLYSLSSVVTVPSSSLGTQTYICNVNHKPSNTKVDKKVEPKSCDKTHTCPPCPAPEAAGGPSVFLFPPKPKDTLMISRTPEVTCVVVDVSHEDPEVKFNWYVDGVEVHNAKTKPREEQYASTYRVVSVLTVLHQDWLNGKEYKCKVSNKALPAPIEKTISKAKGQPREPQVCTLPPSRDELTKNQVSLWCLVKGFYPSDIAVEWESNGQPENNYKTTPPVLDSDGSFFLYSKLTVDKSRWQQGNVFSCSVMHEALHNHYTQKSLSLSPHHHHHHHH
chain 2: QVQLVQSGAEVKKPGASVKVSCKASGYTFTDYEMHWIRQPPGQGLEWIGAIDPKTGDTAYSQKFKGRVTLTADKSTSTAYMELSSLTSEDTAVYYCTRFYSYTYWGQGTLVTVSSASVAAPSVFIFPPSDEQLKSGTASVVCLLNNFYPREAKVQWKVDNALQSGNSQESVTEQDSKDSTYSLSSTLTLSKADYEKHKVYACEVTHQGLSSPVTKSFNRGEC
[2]; soluble human GPC3, Table 13
  Kd: 4.57 nM

B3: H0000/GL4: single-arm anti-GPC3 antibody, H0000 (SEQ ID NO: 40) with GL4 (SEQ ID NO: 41) (antibody, V domains shown)
VH: QVQLVQSGAEVKKPGASVKVSCKASGYTFTDYEMHWIRQPPGQGLEWIGAIDPKTGDTAYSQKFKGRVTLTADKSTSTAYMELSSLTSEDTAVYYCTRFYSYTYWGQGTLVTVSS
VL: DIVMTQSPLSLPVTPGEPASISCRSSQSLVHSNRNTYLHWYQQKPGQAPRLLIYKVSNRFSGVPDRFSGSGSGTDFTLKISRVEAEDVGVYYCSQNTHVPPTFGQGTKLEIK
modifications: An artificially generated sequence
[2]; [3]
  Affinity for human GPC3 ka: 430000 M⁻¹ s⁻¹
  Affinity for human GPC3 kd: 0.0018 s⁻¹
